From the DeepSol protein solubility set

Assay: soluble on expression in E. coli; label from the status in PepcDB or PDB records

Sequence	soluble on expression in E. coli
MMVKSFTPPSSQSSVQDSGNSKLSVIEVVPENGIGALVSSSPTILRTTQAEPEILRYDPVEILAHYENKLLQVLRRTLAVLQPTLSYVFGLWLDNKRGVKVKNDRSRAIQLRELLTKLGPAYIKIGQALSTRPDLVPPVYLEELTRLQDQLPAFPNEIAYQFIEEELGAKPEEIYAEVSPEPIAAASLGQVYKGKLKTGEEVAIKVQRPDLREIITIDLYILRRLAGWVQRKVKRVRSDLVGILDELGDRIFEEMDYIHEGENAERFFELYGHIQDIYVPKIYWEYTNRRVLTMEWIKGIKLTQTSEIKELGIDARYLIEVGVQCSLRQLLEHGFFHADPHPGNLLATFDGKLAYLDFGMMSEIRPPQRYGLIEAIVHVVNRDFDSLAQDYVKLEFLSPETDLTPIIPAFGKVFANAQGASVAELNIKSITDDLSALMYEYPFRVPPYYALIIRSLVTLEGIAIYIDPNFKVLSEAYPYVSKRLLTDPADELRTSLRDLLFKMVNSGGIV	not soluble
MNEFEIGLMSYLGREKLEKLGKVKVGIAGAGGLGSNCALHLVRSGFKNLKIVDFDVVEPSNLNRQFFFLDQLGRPKVLALKENLARINPDVMIEAIQQKVDRNNAKQLFDDCDAVVEAFDKVECKTMMAEAFASSGKFFVCASGLAGWGNSDEIRIRKVHDRFYIVGDFVTGVKEGIPPISPRVNIAAAKQADLILSFFLDDADNTVNVNCQEGLEHHHHHH	soluble
MYDWFSEMRKKDPVYYDGNIWQVFSYRYTKEVLNNFSKFSSDLTGYHERLEDLRNGKIRFDIPTRYTMLTSDPPLHDELRSMSADIFSPQKLQTLETFIRETTRSLLDSIDPREDDIVKKLAVPLPIIVISKILGLPIEDKEKFKEWSDLVAFRLGKPGEIFELGKKYLELIGYVKDHLNSGTEVVSRVVNSNLSDIEKLGYIILLLIAGNETTTNLISNSVIDFTRFNLWQRIREENLYLKAIEEALRYSPPVMRTVRKTKERVKLGDQTIEEGEYVRVWIASANRDEEVFHDGEKFIPDRNPNPHLSFGSGIHLCLGAPLARLEARIAIEEFSKRFRHIEILDTEKVPNEVLNGYKRLVVRLKSNE	soluble
GPGSMIRRYSLAIGGSCCCPAPRLISTEAFVSSVEKVQHQLGTSERKQDLILHGRQLFENESLDDIHSAWTPVVAGKICHAATQLRISPTKGQPFGAVVGLSLTPEAVGVMDAPSLARIAHSCLILRSPHLYEVLFTYIRRLITLAATLDTVSCAVLINAYGRAQVHHEEFYKVICDRAAVVMKDPRTFVAHTANVAHALSRVRYFHRDLFLTLRDQAERQASQGPPLVAVTILDGFAEIGFVDDALFTALEQRLLGELAELPAPLMASLVSCLAKAGRAPSPLFTACGERIVAIGNTFDSNSIAKTCDAFYRANVPAEEVLGTLAERACKVVADFRPDEINQTLSSLASFDLFDGELFPLLASRFVSIVKQGGYVSPVDAAGILTSFAVVQERSDELVHVCTQLLSVHRDALDGITLLQTLWACVTLNVRNEAQQNLLQCLSSGAVVLPDEASAEKESKVVLERLLFVKKAYGLQ	not soluble
QLSSFETCAEKEESANTTESAIFEYHCEMSFDPNLLHNNGHNGYPNGTSAALRETGVIEKLLTSYGFIQCSERQARLFFHCSQYNGNLQDLKVGDDVEFEVSSDRRTGKPIAVKLVKIKQEILPEERMNGQVVCAVPHNLESKSPAAPGQSPTGSVCYERNGEVFYLTYTPEDVEGNVQLETGDKINFVIDNNKHTGAVSARNIMLLKKKQARCQGVVCAMKEAFGFIERGDVVKEIFFHYSEFKGDLETLQPGDDVEFTIKDRNGKEVATDVRLLPQGTVIFEDISIEHFEGTVTKVIPKVPSKNQNDPLPGRIKVDFVIPKELPFGDKDTKSKVTLLEGDHVRFNISTDRRDKLERATNIEVLSNTFQFTNEAREMGVIAAMRDGFGFIKCVDRDVRMFFHFSEILDGNQLHIADEVEFTVVPDMLSAQRNHAIRIKKLPKGTVSFHSHSDHRFLGTVEKEATFSNPKTTSPNKGKEKEAEDGIIAYDDCGVKLTIAFQAKDVEGSTSPQIGDKVEFSISDKQRPGQQVATCVRLLGRNSNSKRLLGYVATLKDNFGFIETANHDKEIFFHYSEFSGDVDSLELGDMVEYSLSKGKGNKVSAEKVNKTHSVNGITEEADPTIYSGKVIRPLRSVDPTQTEYQGMIEIVEEGDMKGEVYPFGIVGMANKGDCLQKGESVKFQLCVLGQNAQTMAYNITPLRRATVECVKDQFGFINYEVGDSKKLFFHVKEVQDGIELQAGDEVEFSVILNQRTGKCSACNVWRVCEGPKAVAAPRPDRLVNRLKNITLDDASAPRLMVLRQPRGPDNSMGFGAERKIRQAGVID	soluble
MGHHHHHHSHRSIGLKVGLEIHQQLDTREKLFCSCPAELGEEEHDEFVRQLRPTRSELGDVDPAALFEWRKGRLYIYQAPLNHSCLVEADEEPPHPINREAVAVAVAVAKALGSAIVDEVHVMRKTVIDGSNTSGFQRTAIVALGGSIRVGSKEVPIETIVIEEDAARKVGEKGRYVVYRLDRLGIPLIEIATAPVIESPGEAREVALAIGTMLRLTGKVKRGLGTIRQDLNVSIRGGAKTEIKGVQRLELIPRVIEYEVLRQLSLLRIR	not soluble
MVFVKTLHRTLFLEVAANEDVLSIKQKIEAAEGIPAEEQRLCYAGRQLEDSDCGIDSEATIYVNLELLGGAKKRKKKVYTTPKKNKRKPKKVKLAVLKYYKIDENGKITRLRKECQQPSCGGGVFMAQHANRHYCGRCHDTLVVDTATAAATSGEKGGKKGKK	not soluble
GAMDMLGTSFNNFGISLSHKRYFSGKVDEIIRCTMGKRIVKISSTKINTSILSSVSEQIGENITDWKNDEKKVYVSRVVNQCIDKFCAEHSRKIGDNLRKQIFKQVEKDYRISLDINAAQSSINHLVSGSSYFKKKMDELCEGMNRSVKNDTTSNVANLISDQFFEKNVQYIDLKKLRGNMSDYITNLESPF	soluble
MIKVLLLDVDGTLLSFETHKVSQSSIDALKKVHDSGIKIVIATGRAASDLHEIDAVPYDGVIALNGAECVLRDGSVIRKVAIPAQDFRKSMELAREFDFAVALELNEGVFVNRLTPTVEQIAGIVEHPVPPVVDIEEMFERKECCQLCFYFDEEAEQKVMPLLSGLSATRWHPLFADVNVAGTSKATGLSLFADYYRVKVSEIMACGDGGNDIPMLKAAGIGVAMGNASEKVQSVADFVTDTVDNSGLYKALKHFGVI	not soluble
MKNKLFASALCAAALFTTNAMAKDQELYFYNWSEYIPSEVLEDFTKETGIKVIYSTYESNESMYAKLKTQGAGYDLVVPSTYFVSKMRKEGMLQEIDHSKLSHFKDLDPNYLNKPFDPGNKFSIPYIWGATGIGINTDMLDKKSLKNWGDLWDAKWAGQLMLMDDAREVFHIALSKLGYSPNTTNPKEIKAAYRELKKLMPNVLVFNSDFPANPYLAGEVSLGMLWNGSAYMARQEGAPIQIIWPEKGTIFWMDSISIPAGAKNIEAAHKMIDFLLRPENAAKIALEIGYPTPVKTAHDLLPKEFANDPSIYPPQSVIDNGEWQDEVGEASVLYDEYFQKLKVND	soluble
MALVEFLMETLDGLKGTDIVHFDVRGKSSITDNMIICTGTSSRQVSAMADNLITECKKAGFETFGEEGKNTADWIVVDLGQAIVHIMQRDAREMYQLEKLWALEHHHHHH	not soluble
MAHHHHHHMRARPSWHLRLNKNRDDVTTFRGFPATARSCCSIGSISGLQALPHPMELSSVEYRSEGWTHAICRLYRTLYKLHAKQLHPIQREFGDRFVQTEFQRHIDASEKHARIFYQSWYSYAVQLLVGQTSRDMTAEEQQQLTPEQKETMRRLRSHVLQAKQSEPGFHL	not soluble
MIYQKQRNTAETQLNISISDDQSPSHINTGVGFLNHMLTLFTFHSGLSLNIEAQGDIDVDDHHVTEDIGIVIGQLLLEMIKDKKHFVRYGTMYIPMDETLARVVVDISGRPYLSFNASLSKEKVGTFDTELVEEFFRAVVINARLTTHIDLIRGGNTHHEIEAIFKAFSRALGIALTATDDQRVPSSKGVIE	soluble
MAPSGGQEAQICDSETFGDSDFVVVANRLPVDLERLPDGSTTWKRSPGGLVTALEPVLRRRRGAWVGWPGVNDDGAEPDLHVLDGPIIQDELELHPVRLSTTDIAQYYEGFSNATLWPLYHDVIVKPLYHREWWDRYVDVNQRFAEAASRAAAHGATVWVQDYQLQLVPKMLRMLRPDLTIGFFLHIPFPPVELFMQMPWRTEIIQGLLGADLVGFHLPGGAQNFLILSRRLVGTDTSRGTVGVRSRFGAAVLGSRTIRVGAFPISVDSGALDHAARDRNIRRRAREIRTELGNPRKILLGVDRLDYTKGIDVRLKAFSELLAEGRVKRDDTVVVQLATPSRERVESYQTLRNDIERQVGHINGEYGEVGHPVVHYLHRPAPRDELIAFFVASDVMLVTPLRDGMNLVAKEYVACRSDLGGALVLSEFTGAAAELRHAYLVNPHDLEGVKDGIEEALNQTEEAGRRRMRSLRRQVLAHDVDRWAQSFLDALAGAHPRGQG	not soluble
MGSDKIHHHHHHAEPAPSQEDMRLYTIASAPSAGRIEQDIKTLVGFGTRHTLSQTDSNAQGIGAARRWIETEFQRISAKCNGCLEVVTLSETVSGKRIPNPTEVVNVIAIQRGLTDPNRAVVMTGDIDSRVTDVMNSSAISPGANDNASGVAGTLEAARVLSQYQFAGTIIYAALSGEEQGLYGGDILINHAKAQGLQIQAVLNNDMIGNIAGINGVIDNHSVRVFSEGVRIAETSEEAKERYFSGGENDSASRNLARKIKSLADQYMTNLDVQLINRLDRFGRGGHHLPFNKAGFAAVRVMETNEHYHRQHQDIRTENGIAYGDVIEGVDFDFNAKLTALNAISLAAMAWAPAPPKEVKISGEVSADTVLKWTVNNKDKALVGYRVYWRNTTASEWTHSRYVGKLGQFTLKNLVIDNYLFGVASVSADGNTSPVVFPGAIGAF	not soluble
MGSDKIHHHHHHMRTPVPRVAAIHDLSGFGRTSLTVAMPVLSSMGVQVCPLPTAVLSTHTSGFENFSFVDLTEQMHSILDHWQSLNLKFDAVYSGFLGSPEQVDIVARCIDMFRTPDGLAVVDPVMGDNGEMEPTMTLEMVHRMRWLVTKADIITPNFTEAAFLLDEKYTTEATVSTVKDWLRRLTAMGPSIAIITSVPVHGDERRSAVMAYNRRHDRFWKVDCSYIPAHYPGTGDTFASVVTGALLQGDSLPIAMDRAVQFVTMGIRATFGHNLPSRDGILLERVLDTLRAPVTSSSFELLDNDGEQCACR	not soluble
MESEKKIAHEIGGVKNDALRFGLHGVKSNIIGSHPLESSYESEKKSKEALKRTVIAHAYGTALPLKMDMDRQILSRFQRPPGPIPSSMLGLEVYTGAVDDFGFEDYLNDPRDSETFKPVDFHHGMEVRLGISKGPIYPSFM	not soluble
MRKLVVGITIASLMGCSMGHRDPVEVKQALNESINQANSRALEEIPSSVEADLMPNLDSNVSSDNGTSKRFRIQANAVEARSFFASLVKGTEYSVAIHPAVQGNITVNLSDVTLDEVLSVVQNMYGYDVMKSGKVIQVYPAGMRTVTIPVDYLQFKRSGRSLTSIVTGSVTSAGTSNSGGSSDSSDSSDSNNSNNGNDSSTTSTGGTRIETITESDFWPMLQQAVANLIGSGKGQSVVVTPQAGVITVRAFPDDIREVREFLGVSQERMQRQVILEAKILEVTLSDGYQQGINWSNLSASIGNSGSIIVNRPASALPPLDAIGTLLGGQTNVTISDGNFEAVLNFMSTQGDLNVLSSPRITAANNQKSVIKVGTDQYFVTELSSNAGNGENSNAVPEVELTPFFSGISLDVTPQIDNKGNVFLHVHPAVIEVTEEVKQLNLGGDFQNIQLPLAKSSIRESDSVIRAKDGDVVVIGGLMKQQNVEQVSKVPFLGDVPALGHLFRNTSNVTQKTELVILLKPTVVGVNSWQKELERSRDLLQEWFPDAQLEHHHHHH	not soluble
